Test results published in patent US5665701.

Assays:
[1] = target: FcγRII receptor (CD32) on human platelets (human) (UniProt P12318)
[2] = target: FcγRII receptor (CD32) on human platelets (human) (UniProt P12318); remark: listed apart in the source

Substance CD32 antibody IV.3 (M.Ab.IV.3) has an inhibition of M.Ab.F11-induced ^14 C-serotonin release [1] of 1 µg/mL and a concentration that doubled the latency of M.Ab.F11-induced aggregation [2] of 150 ng/mL.
